Experimental data published in a protein production outcome set (Wang et al. 2014).

Test: label from the status in PepcDB records

Sequence	protein production
AHAPQRISGLALFDPAGVEAPETSDLQHLLEQGKNPFLVRSRADFQHFYSLTMAAPPWVPEAVLAAIAERYQARRGQLARIFAELQASPPMEPELAKIQAPTLLLWGREDRLLHPSSAQVWAKGLPQAQVQLWEGIGHMPMVERPVRSARLYQQFLER	failed
MDGVFRLLLGRFIQRGTIIFTTAGGTTFTCGDGTGEQVHARLTSPLAQRRLLLDPELALGEIYMDGGLVMQQGSIADLLAVAMGQPDWTPRWAKLHGLVRYWIRTLHQFNPRSRSRNNVAHHYDLDGRLYALFLDSDKQYSCAYFETPDANLDDAQLAKKRHVAAKLLTTPGQRVLDIGSGWGGLGLYLAETCGADVTGVTLSREQLQAANTRAAERGLADRARFLLQDYRDVPGPFDRIVSVGMFEHVGVDHYDTYFRRCAELLKDDGVMLLHSIGRSEGPGFTNPWIAKYIFPGGYLPALSEVLPAIERAGLLVCDIEILRLHYAETLKAWRERFLAHREEAERLYDARFVRMWEFYLAASEMSFRKQNTMVFQIQLTRRQGVVPITRDYIAAEEKRLRGMEKSRTPRLQLAGE	failed
MDLLRGSDYVGDGAWFRAEALQEIGAFAEAPDADSYDALLRIHDRYGAMVIGHIPDMLLHAPSRGTADGSGQRAALDAHLARNGGGADIEAGPAAGTRRIRYPAPEQARLSIIVADAGDGFHLSPCIDALQASLGGCACEILAIAADGEPGDAAKLLRCDPGLGLAARFQLGAEAASGDFLLFIDSRVELAQPDGLQALLGLAARPEVGAAAPRLLRPDGEALWRGPLLIGAGEGAAALFCDAGASEAGHLNRQAVEHNPGALRLECLLMAKAFYQQIGGMDASLPTLLDTAVDLGLRIRAAGRLPVWTPFVSARRHGALDVSEPPETCDADALSLRWNGWLGQDPAHNRHLSLAADKAFQIEDVYSAQWDASFHERTRVLALPAESKATEARMASPFRILQEDCQCQLTQIPAGQRLPSAGEIERMAPDALLMSARFDSASLAWLRGYRQRRPDVLAVLMLDKLDFGAGTTHRYGHSLLQAMAGMADRVIVPTESLYRMALAFADDVRLVPDGLEEARWFELQSLRRVGKKPRVGWVGSAAEAPDLLMLSGIILATAAELDWIVLGDCPEVLKPCLAEYHAFDLSSDDYPTRLASLSLDMAVMPKAATLANETGSPLRMFEFGALGVPVICSAVGELGLSPAPVARVENDVSSWGEALRELARDAAAAAQAGDGLRAWVRENCGLKRHLPLWQQAISR	failed
MDPSSVIWIFFVFLFFYPQVLFRYRLLQRYKFIKQFEAVRKTRAIVMIHRQEQLALFGIPLYKYITIEDSEEILRAIRMTPEDMPIDLILHTPGGLVLASEQIAIALKEHKAKTTVIIPHYAMSGGSLIALAADEIIIDKNAVMGPVDPQIGQYPAASIINAINTKYTDELDDETLILGDIARKAIVQVKEFVYDILKDKMGEEKAKYLSETLSTGKWTHDYPLTINKLKDLGIEVNTELPNIVYELFDLYRQPVNQRPSVQYVPVPYKRGTK	failed
MMSAQRVVRTVRTARAISTALAVAIVLGTGVAWSSVRSFEDGIFHMSAPSLGHGGDDGAIDILLVGLDSRTDAHGNPLSAEELATLHAGDEEATNTDTIILIRVPNNGKSATAISIPRDSYVAAPGLGKTKINGVYGQTRETKRAGLVQAGASPTEAAAAGTEAGREALIKTVADLTGVTVDHYAEIGLLGFALIADALGGVDVCLKEPVYEPLSGADFPAGRQKLNGPQALSFVRQRHDLPRGDLDRVVRQQAVMAALAHRVISGQTLSSPATLKRLEQAVQRSVVLSSGWDIMDFVRQLQKLAGGNVAFATIPVLDGAGWSDDGMQSVVRVDPRQVQDWVVGLLHEQDQGKTDELAYTPAKTTANVVNDTDINGLAAAVSKVLSSKGFTTGSVGNNDGDHVPGSQVRAAKADDLGAQQVAKELGGLPVVADASIAPGSVRVVLANDYSGPGSGLGGSDPNGVVSPARAFNLGSADDTTPPPSPILTAGSDAPECIN	failed
MVVMIKLRDELGTATTDSAQKILLLGSGELGKEIAIEAQRLGVEVVAVDRYANAPAMQVAHRSYVGNMMDKDFLWSVVEREKPDAIIPEIEAINLDALFEFEKDGYFVVPNARATWIAMHRERLRETLVKEAKVPTSRYMYATTLDELYEACEKIGYPCHTKAIMSSSGKGSYFVKGPEDIPKAWEEAKTKARGSAEKIIVEEHIDFDVEVTELAVRHFDENGEIVTTFPKPVGHYQIDGDYHASWQPAEISEKAEREVYRIAKRITDVLGGLGIFGVEMFVKGDKVWANEVSPRPHDTGMVTLASHPPGFSEFALHLRAVLGLPIPGEWVDGYRLFPMLIPAATHVIKAKVSGYSPRFRGLVKALSVPNATVRLFGKPEAYVGRRLGIALAWDKDVEVAKRKAEMVAHMIELRTRSSDWHDQNYEKRKHLLR	not failed
MIVAAPEQYSRDRDWQQAIAAGELTLALQPQMGLRNRQLRGFEVQLRWQHPQQGTLLASQLMEHLEQSQHRETVGRWFLDQAGQLLSQWRNSAQFSGLFALSLLPQQWKSPSFIHDLRSLLETYQIPPEQLELDLPAQSLAESAAESWDWVYAVRDLGIGIGLADFGSRSIGLYDLRNLPLTTLKLERRFVRGLPDDANDRAIVRGVVAMSQALKVRIVARGVDTVDQAKFLARAECDAMQGLAYSAPLEHHHHHH	failed
MWTDAGGQVHEAASGDVRIASLVPSITELLFDLGLADQLVARTGFCIHPEPAVRAVAKVGGTKDVKLDRLRALAPTHVVVNIDENRRETVDEIRTFVPHVIVTHPCAPEDNLALYRLLGGIFGRRPQAEALVGQLRGELDAIQAQTWPARRVLYAIWQDPWMTVSRATYISRMLALVNWATWPDDADTSDTPAACVDGDCSRPNAPGERYPTFRWSDALVRELDAVLLSTEPYRFTEDHADALERQIGKPVLLVDGEMLSWYGSRAVAGARYLRSLAQGFLEHHHHHH	not failed
SHHKVSVSPVVHVRGLCESVVEADLVEALEKFGTICYVMMMPFKRQALVEFENIDSAKECVTFAADVPVYIAGQQAFFNYSTSKRITRPGN	not failed
MTGFDADDAAALIQSYVDDHGLLSFLGVSVEDASDGEMRLRIPYHEKLTNHGPGEGDVHGGIAATLIDTAGGLAVRSALPKPVAANVATIDLNVSYLRPARGDLIADASVVRVGSTVGVAEISVVTPADTADAEPTEVAVGRGSFRVFRDDLEHHHHHH	failed
MGMLGLDLLKEVPGLLEEIKALPLRLDEERFRFWLQQDYPFVEALYRYQVGLLLEAPQAHRAPLVQALMATVEELDWLLLQGASPSAPVHPVRAGYIALLEEMGRLPYAYRVVFFYFLNGLFLEAWAHHVPEEGPWAELSQHWFAPEFQAVLYDLEVLARGLWEDLDPEVVRTYLRRILEAEKATWSLLL	not failed
YRSKGEYHELLANHVAELSKLQNVLYADNRYAILLIFQAMDAAGKDSAIKHVMSGVNPQGCQVYSFKHPSATELEHDFLWRTNCVLPERGRIGIFNRSYYEEVLVVRVHPEILEMQNIPHNLAHNGKVWDHRYRSIVSHEQHLHCNGTRIVKFYLHLSKEEQRKRFLERIDDPNKNWKFSTADLEERKFWDQYMEAYESCLQETSTKDSPWFAVPADDKKNARLIVSRIVLDTLESLNLKYP	failed
MNSNANNTPIAIGISQVFPCSYLDGQQEQLLVIQEETLDPILFERLLAIGFRRSGSAIYKPRCPRCSACQPIRVPIQEFVPSKRQKRTLAHNRDLTWRITTEHTETQYALYEKYIRERHFDGPMYPPSKAQYEQFLFCHWLPPTFIEVYDDNRLVAVAVTDTLPNSFSAIYSYFDPDEERRSLGVLLILLQCRLAKLQGKAFLYLGYQIDANRKMSYKRLYRPYQILTHQGWEYSQVCLEHHHHHH	failed
MLDSFKSALQQFAASIRFKFKSLRSYKYVPQIDSRDCGVAALASIAKYYGSDYSLAHLRELAKTSKEGTTALGIVEAAKKMKFETRAIKADMSLFDVEDIPYPFIVHIVKDGKLQHYYVVYGQEKEKVIIGDPDPTVKIATPVQIAICRRMDRCCYFSGT	failed
PDLYNHAIVIGYGRVGSMLAQLLQSRHVPLLVIDDNSEHVLKAHAAGIPAIRGSAAADLVLAEAHPERAKIAVLAIPQPLEAGEILAKLRALNPELTLVARAQNDAEVKHLLGHGADATVVAEHEMAHSLAEMVLSSTNHPNSTRLQPAIA	failed
MGGDSVAIFTADMSVSGELRNDIELHLRRGIESDALRLVYLPEVDLRTGDIVGTEALVRWQHPTRGLLAPGCFIPVAESINLAGELDRWVLRRACNEFSEWQSAGLGHDALLRINVSAGQLVTGGFVDFVADTIGQHGLDASSVCLEITENVVVQDLHTARATLARLKEVGVHIAIDDFGTGYSAISLLQTLPIDTLKIDKTFVRQLGTNTSDLVIVRGIMTLAEGFQLDVVAEGVETEAAARILLDQRCYRAQGFLFSRPVPGEAMRHMLSARRLPPTCILEHHHHHH	failed
MRRAAGKPRARRNTACHAAGILKKYPSVSALGCTFHDARQTSRCDENDKTNETMSSALLLVPDFSLILIGWLLVRYTPFDRGFWAGVERLVYFVLFPALLLQSTNSAKFDFSSTSAMLGLALLTMVFGMATGYLVKWVLRPAPADFASGLQTAFRFNSYIGLALAARLGNGEGLALMALVVGVTVPLCNVVAVWALAKHGEARVLRELVRNPLILATATGLVTNLLGLHPPEVVAMTLNRLGSASTALGLMTVGAGLQMSGATGTAGPMAWWSGVKLLAMPCFAWLVGKYLPLTPLQYQIVVVYASLPTASSSYILAVRMGGNGPMVAATISAMTVVAIVTTPVWLSLVS	failed
MKILLIGGSGNIGRAIAAELSGRHEIIAAGRHHGDVRVDIEDEQSIAAMYRQLPRLDAVAVATGGRNGHVGPLAEMNAERYRVGLDAKLMGQVNLVLRGLDKVADGGSFTLVGGAWQPQAIVPLLSNVYMANAALEGFVNAAAVELPRRLRINLVSPLLLAESEAEYGPLFRGVPLVEARQVARAYSLSIEGAQTGQTYRLGRLDLEHHHHHH	not failed
MAKSRLLLSELLDQLSFALCIVRNDYVIVKVNEYFESRVIFDGETMQGKNILELFPESADYLKRKIDTALVIESSSFSSWEQKPHLLPFKSSRPVSGEEEQMYQNLEVIPIHSEDGTIEHVCLCVYDVTIQASQQQ	not failed
MHLNTLAGRSYNDLMQYPVFPWILADYDSEEVDLTNPKTFRNLAKPMGAQTDERLAQYKKRYKDWEDPNGETPAYHYGTHYSSAMIVASYLVRMEPFTQIFLRLQGGHFDLADRMFHSVREAWYSASKHNMADVKELIPEFFYLPEFLFNSNNFDLGCKQNGTKLGDVILPPWAKGDPREFIRVHREALECDYVSAHLHEWIDLIFGYKQQGPAAVEAVNVFHHLFYEGQVDIYNINDPLKETATIGFINNFGQIPKQLFKKPHPPKRVRSRLNGDNAGISVLPGSTSDKIFFHHLDNLRPSLTPVKELKEPVGQIVCTDKGILAVEQNKVLIPPTWNKTFAWGYADLSCRLGTYESDKAMTVYECLSEWGQILCAICPNPKLVITGGTSTVVCVWEMGTSKEKAKTVTLKQALLGHTDTVTCATASLAYHIIVSGSRDRTCIIWDLNKLSFLTQLRGHRAPVSALCINELTGDIVSCAGTYIHVWSINGNPIVSVNTFTGRSQQIICCCMSEMNEWDTQNVIVTGHSDGVVRFWRMEFLQVPETPAPEPAEVLEMQGPLSHPHPNPIEVRNYSRLKPGYRWERQLVFRSKPTMHTAFDRKDNAHPAEVTALGISKDHSRILVGDSRGRVFSWSVSDQPGRSAADHWVKDEGGDSCSGCSVRFSLTERRHHCRNCGQLFCQKCSRFQSEIKRLKISSPVRVCQNCYYNLQHERGSEDGPRNC	failed
MKHFKLPDLGEGLQEAEIVEWHVKAGDSVRADQRLVSVETAKALVDIPAPYDGVVGKLFGAEGDILHVGEPLVGFEGEEADAGTVVGRLEGGGSALEDRFFIGAAPSTREHLAPRATPAVRQFARQQGVELAGLSGSGPDGLITRADVEAAAQGTRERFGGERLRGVRRSMALNMARSHAEVVPVTIYGDADLHRWKTARDPLIRLAQALAEACRAEPTLNAWFDGASLSLKLHERLDLGIAVDTPDGLFVPVLRDVGARSAEDLRAGMRRLREDVQARSIPPAEMLGATLTLSNFGTLFGRYANPVVVPPQVAILGAGGIRDEVVAWRGEMAIHPILPLSLSFDHRAATGGEAARFLKVLVNALEQPD	failed
